From the RNAGym collection of RNA variant scans (doi:10.7554/elife.80360)

B1: HDV Ribozyme (parent)
chain: GGCCGGCAUGGUCCCAGCCUCCUCGCUGGCGCCGGCUGGGCAACAUUCCGAGGGGACCGUCCCCUCGGUAAUGGCGAAUGGGACCCA

Variants of: B1
Experiment: self-cleavage, relative activity (ratio to wild type); higher = more cleavage; co-transcriptional

Variant	self-cleavage
C41G G74C	0.119
C41G G74A	0.486
C41G G74U	0.47
C41U A83U	0.583
C41U A83C	0.332
C41G G82U	0.157
C41G C84U	0.456
C41G C84G	0.665
C41G C84A	0.508
C41U G73U	0.511
C41G C64U	0.853
C41G C64A	0.853
A42G U65G	0.536
A42G U65A	0.703
A42C C63G	0.208
A42C C63A	0.277
A42G	0.562
A42C	0.333
C41A U72G	0.712
C41A U72A	0.906
C41A U72C	0.653
C41A C85A	0.636
C41A C85G	0.86
C41U C66U	1

Variant	self-cleavage
C41U C66A	0.719
A42C C49A	0.262
A42C C49U	0.115
C41U C44U	0.516
C41G A43G	0.262
C41G A43U	0.277
C41G A43C	0.308
A42G G80A	0.0997
C41G U69G	0.755
A42G C86U	0.697
A42G C86G	0.597
A42G C86A	0.697
A42C G54U	0.312
A42C G54C	0.269
C41G G55A	0.911
C41G G55U	0.86
A42C C58A	0.364
C41G C61G	0.875
C41G C61U	0.886
C41G C85A	0.617
C41G U65G	0.692
C41G U65A	0.987
C41A U46A	0.7
C41A U46C	0.415

Variant	self-cleavage
C41A U46G	0.554
A42G G59C	0.703
A42G G82C	0.0396
A42G G82U	0.0504
A42C C44U	0.161
A42C C44A	0.285
A42G G55U	0.354
A42C A43C	0
A42C A43G	0.0898
A42C A43U	0.122
C41A C48U	1.02
A42G G54A	0.567
A42G G54C	0.614
A42C G53A	0.289
C41G U47G	0.598
C41G U47C	0.633
A42G C58G	0.554
A42G C58U	0.617
C41G A45G	1.01
C41G A45U	0.594
C41G A45C	0.166
A42G C44G	0
A42C G80A	0.234
A42C G80U	0.219

Variant	self-cleavage
A42C G59A	0.213
A42C G59U	0.424
A42G C62U	0.808
A42G C62A	0.35
C41G C63G	0.517
C41U C63G	0.739
C41U G82C	0.136
C41A C62U	0.869
A42C A51C	0.0594
A42G U46G	0.0875
C41U C48A	1.07
A42C G55A	0.578
C41U C84A	0.78
C41G G80A	0.431
C41G G80C	0.164
C41U A71U	0.897
C41U U60G	1.1
A42C U69A	0.156
A42C C48U	0.26
A42C C48A	0.361
A42C U79G	0.151
C41A G54U	0.862
C41G C57U	1.04
C41G C57A	1.05

Variant	self-cleavage
C41G C48A	1.12
C41G C48G	0.682
C41G C48U	0.649
C41A G67C	0.525
A42C G81U	0.16
A42C G81A	0.104
C41G A51C	0.635
A42C G74U	0.0733
A42C G74A	0.0652
C41G G76A	0.991
C41G G76U	0.989
C41G G76C	0.91
A42C C62U	0.157
A42C C62G	0.0898
C41A G52A	0.901
C41A G52C	0.928
C41A C84G	0.749
C41A C84U	0.388
C41U G55C	0.885
A42G A56C	0.54
A42G A56G	0.516
A42G A56U	0.698
C41U C75U	0.249
C41G G54A	0.831

Variant	self-cleavage
A42C C85U	0.415
C41G	0.798
C41U	0.979
C41U A56U	1.09
C41U A56G	0.7
C41U A45C	0.569
A42C G82A	0.107
A42C G82C	0
A42C G82U	0.138
C41U A78C	0.178
C41U A78U	0.199
C41U G81U	0.205
C41U G81A	0.237
C41U G81C	0.168
C41G A77U	0.185
C41G A77C	0.222
C41G A56G	0.851
C41G A56U	0.746
C41A G74A	0.692
A42G C84G	0.314
C41G C86A	1.14
C41G C86G	0.914
C41A G76U	1.02
C41U C85U	0.845

Variant	self-cleavage
C41A C61A	1.07
C41A C61G	0.909
C41G G81A	0.188
C41U G50C	0.67
C41U G50A	1.01
C41U G50U	0.933
C41A G80U	0.187
C41A G80A	0.389
A42C A45G	0.465
A42G C64U	0.45
C41U A70U	0.936
C41G G59A	0.758
C41G G59C	0.919
A42G A83U	0.185
A42G A83C	0.119
C41U A87G	0.961
C41U A87C	1.09
A42G C57U	0.527
C41G C66G	0.831
C41G C66A	0.96
C41G A42U	0.886
A42C A77G	0.156
A42C G50C	0.375
A42C G50U	0.386

Variant	self-cleavage
C41A C75U	0.145
C41A C75G	0.0773
C41A C75A	0.208
A42C G73U	0.0791
A42G G73U	0.147
A42G G73A	0.192
C41U A77U	0.475
C41U A77G	0.95
C41U A77C	0.341
A42G A77G	0.208
A42C A78C	0.169
A42C A78U	0.0449
A42G U69C	0.462
C41U C61U	0.946
C41G G50U	0.708
A42C C84A	0.17
A42G G52A	0.483
C41A G55U	0.968
A42C U47A	0.0594
C41U C57U	1.12
C41U G59U	0.937
C41U G59C	0.963
C41U G59A	1
A42C U72G	0.256

Variant	self-cleavage
A42G C49A	0.302
A42G C49U	0.489
A42G C49G	0.358
C41A C58A	0.831
C41A C58U	0.778
C41A C86A	0.815
C41A U65C	1.14
C41A G50C	0.877
C41A G50A	0.957
C41A G50U	0.886
A42G A87C	0.521
A42G A87U	0.479
A42C A87C	0.367
A42C A87G	0.219
C41U U69A	1.08
C41U U69G	0.946
C41A C64A	0.794
C41A C64U	0.831
A42C C57U	0.203
A42C C57G	0.237
C41U G53U	1.1
C41U G53C	1.05
A42C U60G	0.269
A42C U60A	0.189

Variant	self-cleavage
A42C U60C	0.35
C41G A78U	0.178
C41G A78C	0.0405
C41G A78G	0.208
C41U U72G	0.534
C41U U72C	0.375
C41U U72A	0.656
C41A G68A	1.01
C41A G68U	0.561
C41A G68C	0.665
A42G C63U	0.633
A42G C63G	0.504
A42G C63A	0.359
C41U G54C	0.63
C41U G54U	0.931
C41G A87U	0.788
C41U A43C	0.831
C41U A43G	0.356
C41U A43U	0.489
A42G C66U	0.591
C41A C57G	1.04
C41A C57A	1.02
A42C U46G	0.166
A42C U46A	0.107

Variant	self-cleavage
C41U G80A	0.283
C41A C49A	0.519
C41U C86G	0.784
C41U C86A	1.04
C41U U47A	0.96
A42G G68A	0.441
A42G G68U	0.403
A42G U60G	0.639
A42G U60A	0.302
A42G U60C	0.617
C41G G67C	0.678
C41G G67U	0.48
C41A C63A	0.969
A42C A70C	0.0875
A42C A70U	0.312
C41G A83U	0.77
C41G A71C	0.0723
C41G A71U	0.554
C41A U47A	0.689
C41G C62G	0.252
A42G G74C	0.095
A42G G74U	0.0791
C41U C49U	0.749
A42C G67C	0.17

Variant	self-cleavage
A42C G67A	0.249
A42C G52A	0.399
A42G A43G	0
A42G A43C	0.158
A42G A43U	0.185
A42G U47G	0.7
C41G C58G	0.974
C41U C62A	1.02
A42G A71U	0.502
C41A G53A	0.967
C41A C66U	0.9
A42G G67C	0.365
C41A U79G	0.858
C41A U79C	0.237
A42G A70U	0.365
C41G U46A	0.293
C41G U46C	0.297
C41A G81U	0.211
C41U C58A	0.962
C41U C58G	0.889
C41G G53U	0.53
C41G G53C	0.658
A42C G76A	0.113
A42C G76C	0.277

Variant	self-cleavage
A42G A78U	0.162
C41U A51G	0.914
C41A U60C	1.05
C41G U60C	0.997
C41G U60G	0.72
C41G C49A	0.489
A42C C61U	0.199
A42C C61G	0.269
A42C C61A	0.312
C41U U46C	0.734
C41U G74A	0.637
A42C C64A	0.212
A42C C64U	0.208
C41G G52C	0.509
A42G G76C	0.672
A42G G76U	0.782
A42C A71C	0.332
A42C A71U	0.166
C41U U65A	0.92
A42G A51U	0.464
A42G A51C	0.831
A42C C66G	0.243
A42C C66U	0.489
A42G G81A	0.106

Variant	self-cleavage
A42G G81C	0.0386
A42G C75G	0
C41U G67C	0.554
C41U G67U	0.604
C41U G67A	0.439
C41G U79G	0.302
C41G U79C	0.35
C41G U79A	0.59
A42C G68C	0.198
A42G C85A	0.745
A42G C85U	0.767
C41U A42U	0.831
C41U A42G	0.872
C41U A42C	0.519
C41U G76A	0.95
C41G C44G	0.158
A42G A45G	0.383
A42G A45U	0.598
C41G C75A	0.353
C41G C75G	0.219
C41G C75U	0.095
C41U G52A	1.06
